Source: PMC5588873 (Cell reports, 2017)

Target: TNRC6A (human (endogenous in HeLa), UniProt Q8NDV7 1-1962)
Assay: affinity purification with mass spectrometry

TNRC6A, sequence (Q8NDV7 whole entry): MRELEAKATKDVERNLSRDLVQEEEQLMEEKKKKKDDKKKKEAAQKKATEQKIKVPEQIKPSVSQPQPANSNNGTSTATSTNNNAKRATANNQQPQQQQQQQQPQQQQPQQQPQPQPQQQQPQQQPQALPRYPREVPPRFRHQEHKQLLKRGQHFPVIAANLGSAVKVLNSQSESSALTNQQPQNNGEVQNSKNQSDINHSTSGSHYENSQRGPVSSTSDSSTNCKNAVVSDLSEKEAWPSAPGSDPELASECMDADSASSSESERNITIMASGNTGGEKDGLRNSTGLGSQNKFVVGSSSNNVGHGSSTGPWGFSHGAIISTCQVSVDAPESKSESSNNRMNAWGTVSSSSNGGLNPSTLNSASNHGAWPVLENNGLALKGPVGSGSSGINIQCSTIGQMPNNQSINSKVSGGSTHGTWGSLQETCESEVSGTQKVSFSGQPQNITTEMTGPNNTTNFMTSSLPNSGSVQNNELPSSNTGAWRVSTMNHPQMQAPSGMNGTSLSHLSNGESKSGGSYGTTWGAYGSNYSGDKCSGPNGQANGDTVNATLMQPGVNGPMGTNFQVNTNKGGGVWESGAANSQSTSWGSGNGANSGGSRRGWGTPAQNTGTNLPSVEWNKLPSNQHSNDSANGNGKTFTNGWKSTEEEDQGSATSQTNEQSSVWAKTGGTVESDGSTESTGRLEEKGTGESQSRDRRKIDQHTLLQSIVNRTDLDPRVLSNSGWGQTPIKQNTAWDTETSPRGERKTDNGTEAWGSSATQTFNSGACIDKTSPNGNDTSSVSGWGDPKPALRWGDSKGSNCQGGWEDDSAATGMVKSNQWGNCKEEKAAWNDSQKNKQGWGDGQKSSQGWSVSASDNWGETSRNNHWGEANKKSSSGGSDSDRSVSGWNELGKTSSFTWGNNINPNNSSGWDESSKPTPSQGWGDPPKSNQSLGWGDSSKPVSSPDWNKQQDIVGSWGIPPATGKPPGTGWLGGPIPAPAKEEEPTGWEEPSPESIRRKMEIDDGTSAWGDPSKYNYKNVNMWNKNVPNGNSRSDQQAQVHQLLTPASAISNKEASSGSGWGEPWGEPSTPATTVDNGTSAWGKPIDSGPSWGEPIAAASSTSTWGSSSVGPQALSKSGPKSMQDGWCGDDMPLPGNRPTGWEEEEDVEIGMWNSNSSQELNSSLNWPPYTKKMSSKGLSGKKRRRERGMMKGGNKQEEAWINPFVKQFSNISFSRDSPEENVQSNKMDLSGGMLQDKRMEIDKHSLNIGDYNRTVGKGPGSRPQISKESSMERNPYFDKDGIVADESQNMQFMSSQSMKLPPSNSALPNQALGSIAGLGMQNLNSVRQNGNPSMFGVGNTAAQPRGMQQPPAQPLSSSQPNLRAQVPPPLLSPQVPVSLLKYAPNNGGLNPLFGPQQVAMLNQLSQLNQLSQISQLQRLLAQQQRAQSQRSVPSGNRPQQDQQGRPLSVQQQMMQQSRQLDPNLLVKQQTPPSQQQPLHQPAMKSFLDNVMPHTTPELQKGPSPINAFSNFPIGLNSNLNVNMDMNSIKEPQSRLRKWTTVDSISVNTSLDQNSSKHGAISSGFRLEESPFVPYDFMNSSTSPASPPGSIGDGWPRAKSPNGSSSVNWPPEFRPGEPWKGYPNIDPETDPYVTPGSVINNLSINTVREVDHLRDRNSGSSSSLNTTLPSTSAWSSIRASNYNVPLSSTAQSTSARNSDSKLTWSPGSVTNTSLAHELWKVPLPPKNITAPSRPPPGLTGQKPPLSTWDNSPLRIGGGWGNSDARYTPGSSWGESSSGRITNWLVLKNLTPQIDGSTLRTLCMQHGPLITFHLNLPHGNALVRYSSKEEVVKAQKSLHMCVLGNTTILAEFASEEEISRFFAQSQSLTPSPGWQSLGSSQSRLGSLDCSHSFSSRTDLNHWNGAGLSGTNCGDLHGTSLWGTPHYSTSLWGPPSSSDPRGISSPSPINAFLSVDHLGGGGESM

B1: TP53BP1 (natural protein, human (endogenous in HeLa), UniProt Q12888 1-1972, looked up)
chain: MDPTGSQLDSDFSQQDTPCLIIEDSQPESQVLEDDSGSHFSMLSRHLPNLQTHKENPVLDVVSNPEQTAGEERGDGNSGFNEHLKENKVADPVDSSNLDTCGSISQVIEQLPQPNRTSSVLGMSVESAPAVEEEKGEELEQKEKEKEEDTSGNTTHSLGAEDTASSQLGFGVLELSQSQDVEENTVPYEVDKEQLQSVTTNSGYTRLSDVDANTAIKHEEQSNEDIPIAEQSSKDIPVTAQPSKDVHVVKEQNPPPARSEDMPFSPKASVAAMEAKEQLSAQELMESGLQIQKSPEPEVLSTQEDLFDQSNKTVSSDGCSTPSREEGGCSLASTPATTLHLLQLSGQRSLVQDSLSTNSSDLVAPSPDAFRSTPFIVPSSPTEQEGRQDKPMDTSVLSEEGGEPFQKKLQSGEPVELENPPLLPESTVSPQASTPISQSTPVFPPGSLPIPSQPQFSHDIFIPSPSLEEQSNDGKKDGDMHSSSLTVECSKTSEIEPKNSPEDLGLSLTGDSCKLMLSTSEYSQSPKMESLSSHRIDEDGENTQIEDTEPMSPVLNSKFVPAENDSILMNPAQDGEVQLSQNDDKTKGDDTDTRDDISILATGCKGREETVAEDVCIDLTCDSGSQAVPSPATRSEALSSVLDQEEAMEIKEHHPEEGSSGSEVEEIPETPCESQGEELKEENMESVPLHLSLTETQSQGLCLQKEMPKKECSEAMEVETSVISIDSPQKLAILDQELEHKEQEAWEEATSEDSSVVIVDVKEPSPRVDVSCEPLEGVEKCSDSQSWEDIAPEIEPCAENRLDTKEEKSVEYEGDLKSGTAETEPVEQDSSQPSLPLVRADDPLRLDQELQQPQTQEKTSNSLTEDSKMANAKQLSSDAEAQKLGKPSAHASQSFCESSSETPFHFTLPKEGDIIPPLTGATPPLIGHLKLEPKRHSTPIGISNYPESTIATSDVMSESMVETHDPILGSGKGDSGAAPDVDDKLCLRMKLVSPETEASEESLQFNLEKPATGERKNGSTAVAESVASPQKTMSVLSCICEARQENEARSEDPPTTPIRGNLLHFPSSQGEEEKEKLEGDHTIRQSQQPMKPISPVKDPVSPASQKMVIQGPSSPQGEAMVTDVLEDQKEGRSTNKENPSKALIERPSQNNIGIQTMECSLRVPETVSAATQTIKNVCEQGTSTVDQNFGKQDATVQTERGSGEKPVSAPGDDTESLHSQGEEEFDMPQPPHGHVLHRHMRTIREVRTLVTRVITDVYYVDGTEVERKVTEETEEPIVECQECETEVSPSQTGGSSGDLGDISSFSSKASSLHRTSSGTSLSAMHSSGSSGKGAGPLRGKTSGTEPADFALPSSRGGPGKLSPRKGVSQTGTPVCEEDGDAGLGIRQGGKAPVTPRGRGRRGRPPSRTTGTRETAVPGPLGIEDISPNLSPDDKSFSRVVPRVPDSTRRTDVGAGALRRSDSPEIPFQAAAGPSDGLDASSPGNSFVGLRVVAKWSSNGYFYSGKITRDVGAGKYKLLFDDGYECDVLGKDILLCDPIPLDTEVTALSEDEYFSAGVVKGHRKESGELYYSIEKEGQRKWYKRMAVILSLEQGNRLREQYGLGPYEAVTPLTKAADISLDNLVEGKRKRRSNVSSPATPTASSSSSTTPTRKITESPRASMGVLSGKRKLITSEEERSPAKRGRKSATVKPGAVGAGEFVSPCESGDNTGEPSALEEQRGPLPLNKTLFLGYAFLLTMATTSDKLASRSKLPDGPTGSSEEEEEFLEIPPFNKQYTESQLRAGAGYILEDFNEAQCNTAYQCLLIADQHCRTRKYFLCLASGIPCVSHVWVHDSCHANQLQNYRNYLLPAGYSLEEQRILDWQPRENPFQNLKVLLVSDQQQNFLELWSEILMTGGAASVKQHHSSAHNKDIALGVFDVVVTDPSCPASVLKCAEALQLPVVSQEWVIQCLIVGERIGFKQHPKYKHDYVSH
  stoichiometry N: ~1.52 per TNRC6A (=1)

B2: AGO2 (natural protein)
chain: not shown
  stoichiometry N: 2.2 per TNRC6A (=1)
